Earlier results on 1 substance are cited in PMC3708895.

The data set concerns the target T4 capsid (gp23) (Escherichia virus T4) (UniProt P04535).
Chain of UniProt P04535 (P04535 66-521): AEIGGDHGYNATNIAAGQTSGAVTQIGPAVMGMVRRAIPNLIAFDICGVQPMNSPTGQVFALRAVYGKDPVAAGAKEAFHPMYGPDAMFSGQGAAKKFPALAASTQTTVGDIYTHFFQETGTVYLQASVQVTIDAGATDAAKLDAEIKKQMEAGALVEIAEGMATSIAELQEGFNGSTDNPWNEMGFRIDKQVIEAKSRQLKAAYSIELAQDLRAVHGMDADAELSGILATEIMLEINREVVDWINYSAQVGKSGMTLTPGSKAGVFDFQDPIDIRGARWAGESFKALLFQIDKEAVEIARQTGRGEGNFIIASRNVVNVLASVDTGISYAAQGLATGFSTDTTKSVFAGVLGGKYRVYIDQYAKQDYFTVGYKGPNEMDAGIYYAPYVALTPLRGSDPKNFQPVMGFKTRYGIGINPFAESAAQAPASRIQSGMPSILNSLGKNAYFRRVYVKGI

In general, Kd refers to the equilibrium constant for the complex coming apart. For the substance Soc (from UniProt P03715), the Kd was 75 nM.
